In test [1] the target is T1, human NK1 receptor (human, UniProt P25103 1-407).
T1 construct: whole, on cells; membrane preparations of the transfected cells were used; also called hNK1; human neurokinin-1 receptor
Put plainly: competition vs [3H]Substance P, hNK1 CHO cell membranes.
T1 sequence (P25103 whole entry): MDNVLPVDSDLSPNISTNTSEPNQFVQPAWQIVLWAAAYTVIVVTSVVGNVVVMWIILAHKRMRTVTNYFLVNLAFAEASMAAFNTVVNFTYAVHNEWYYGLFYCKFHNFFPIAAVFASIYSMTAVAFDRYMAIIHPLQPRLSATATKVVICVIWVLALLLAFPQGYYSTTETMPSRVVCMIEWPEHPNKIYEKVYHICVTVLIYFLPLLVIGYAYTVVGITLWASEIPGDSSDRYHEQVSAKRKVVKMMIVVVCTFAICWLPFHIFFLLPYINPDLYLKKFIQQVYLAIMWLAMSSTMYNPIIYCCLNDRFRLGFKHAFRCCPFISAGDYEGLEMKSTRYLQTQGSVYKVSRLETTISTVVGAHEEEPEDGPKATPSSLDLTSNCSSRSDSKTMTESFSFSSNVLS

Test [2] concerns the target T2, human δ opioid receptor (human, UniProt P41143 1-372). In words: cell-based or functional assay.
Test [3] addresses T3, rat µ opioid receptor (rat, UniProt P33535 1-398). Put plainly: cell-based or functional assay.
In test [4] the target is T3, rat µ opioid receptor. In words: competition vs [3H]DAMGO, rMOR cell membranes.
Test [5] deals with T2, human δ opioid receptor. Put plainly: competition vs [3H]DPDPE, hDOR cell membranes.
The target of test [6] is T4, rat NK1 receptor (rat, UniProt P14600 1-407).
T4 construct: whole, on cells; membrane preparations of the transfected cells were used; also called rNK1; rNK-1
In words: competition vs [3H]Substance P, rNK1 CHO cell membranes.
T4 sequence (P14600 whole entry): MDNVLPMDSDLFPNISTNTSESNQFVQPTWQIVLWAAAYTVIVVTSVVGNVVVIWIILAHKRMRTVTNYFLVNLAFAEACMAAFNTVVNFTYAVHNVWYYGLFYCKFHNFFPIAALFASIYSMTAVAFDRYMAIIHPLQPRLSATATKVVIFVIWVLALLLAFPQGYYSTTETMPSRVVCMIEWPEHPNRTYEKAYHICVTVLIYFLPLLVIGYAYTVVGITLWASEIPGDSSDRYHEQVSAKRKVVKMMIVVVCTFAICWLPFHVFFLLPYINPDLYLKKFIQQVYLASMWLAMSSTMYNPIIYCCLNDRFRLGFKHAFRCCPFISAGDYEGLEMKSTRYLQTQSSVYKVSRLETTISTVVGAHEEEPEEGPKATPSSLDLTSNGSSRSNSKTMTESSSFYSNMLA

In test [7] the target is T2, human δ opioid receptor. Put plainly: cell-based or functional assay. The source holds these as a separate data set.
The target in test [8] is µ opioid receptor of the guinea pig isolated ileum (guinea pig, UniProt P97266 1-98). Put plainly: cell-based or functional assay.
The target of another test is guinea pig NK1 receptor (guinea pig, UniProt P30547 1-407). Put plainly: cell-based or functional assay.
Test [9] deals with T2, human δ opioid receptor. In words: competition vs [3H]DPDPE, hDOR cell membranes. This is another data set of the same source.
For test [10], the target named is T4, rat NK1 receptor. In words: competition vs [3H]Substance P, rNK1 CHO cell membranes. The source holds these as a separate data set.
The target in test [11] is T5, human NK1 receptor (human, UniProt P25103 1-407).
T5 construct: whole, on cells; Assayed as membrane preparations of transfected CHO cells; also called hNK1; human neurokinin-1 receptor
In words: competition vs [3H]substance P, membranes of hNK1-transfected CHO cells.
T5 sequence (P25103 whole entry): as the sequence (P25103 whole entry) above

Test [12] concerns the target T6, rat NK1 receptor (rat, UniProt P14600 1-407).
T6 construct: whole, on cells; Assayed as membrane preparations of transfected CHO cells; also called rNK1; rNK-1
Put plainly: competition vs [3H]substance P, membranes of rNK1-transfected CHO cells.
T6 sequence (P14600 whole entry): as the sequence (P14600 whole entry) above

For test [13], the target named is T2, human δ opioid receptor. In words: cell-based or functional assay. This is another data set of the same source.
Test [14] concerns the target T3, rat µ opioid receptor. Put plainly: cell-based or functional assay. This is another data set of the same source.
Test [15] deals with T3, rat µ opioid receptor. In words: competition vs [3H]DAMGO, rMOR cell membranes. This is another data set of the same source.
For test [16], the target named is T2, human δ opioid receptor. In words: competition vs [3H]DPDPE, hDOR cell membranes. The source holds these as a separate data set.
Test [17] concerns the target T1, human NK1 receptor. In words: competition vs [3H]Substance P, hNK1 CHO cell membranes. This is another data set of the same source.
Test [18] deals with T4, rat NK1 receptor. Put plainly: competition vs [3H]Substance P, rNK1 CHO cell membranes. This is another data set of the same source.

Like-named read-outs stand apart in the source and are kept apart here. Bridge positions count the residues as written; N and C are the ends. Square brackets hold non-standard residues; d marks the D form. Primed or numbered codes have the meaning given here. Ends that are not written are not given here. * marks the point of attachment. O‑Bzl(CF3)2 = C-terminal bis(trifluoromethyl)benzyl ester; NH(3,5-(CF3)2-benzyl) = FC(F)(F)c1cc(CN*)cc(C(F)(F)F)c1; OBzl(3,5-(CF3)2) = FC(F)(F)c1cc(CO*)cc(C(F)(F)F)c1; O‑Bzl(CF3)2″ = C-terminal Bzl(CF3)2 ester; Abu = CC[C@H](N)C(=O)O; Aib = CC(C)(N)C(=O)O; OBn = c1ccc(CO*)cc1

The record followed here is patent publication US8026218 (UNIVERSITY OF ARIZONA, dated 2011).

One may read the Ki as a dissociation constant, usually derived from enzyme kinetics or from competition with a known ligand. Higher therefore signals weaker binding. The IC50 is the point on the concentration scale where inhibition reaches its midpoint.

T3 sequence (P33535 whole entry): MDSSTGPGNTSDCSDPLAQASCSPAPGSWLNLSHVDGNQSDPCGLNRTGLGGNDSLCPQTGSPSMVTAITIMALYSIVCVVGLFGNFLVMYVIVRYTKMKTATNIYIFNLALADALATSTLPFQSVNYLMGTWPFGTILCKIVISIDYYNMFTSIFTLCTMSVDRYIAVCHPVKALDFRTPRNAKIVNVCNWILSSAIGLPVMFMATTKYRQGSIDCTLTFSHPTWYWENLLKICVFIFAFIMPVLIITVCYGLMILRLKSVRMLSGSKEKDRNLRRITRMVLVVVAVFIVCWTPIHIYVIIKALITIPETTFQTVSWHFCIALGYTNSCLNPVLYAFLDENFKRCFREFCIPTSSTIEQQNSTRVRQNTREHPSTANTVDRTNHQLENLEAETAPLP
T2 sequence (P41143 whole entry, stated change not applied): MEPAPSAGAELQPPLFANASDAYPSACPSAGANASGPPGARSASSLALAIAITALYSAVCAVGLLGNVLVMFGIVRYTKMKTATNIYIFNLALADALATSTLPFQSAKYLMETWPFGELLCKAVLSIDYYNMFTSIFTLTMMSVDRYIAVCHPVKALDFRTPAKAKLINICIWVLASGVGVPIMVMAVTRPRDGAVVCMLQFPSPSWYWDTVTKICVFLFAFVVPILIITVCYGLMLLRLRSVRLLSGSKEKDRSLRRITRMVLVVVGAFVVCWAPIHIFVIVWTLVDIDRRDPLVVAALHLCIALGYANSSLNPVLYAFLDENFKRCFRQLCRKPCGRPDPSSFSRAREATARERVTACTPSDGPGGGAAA
Chain of guinea pig NK1 receptor (P30547 whole entry): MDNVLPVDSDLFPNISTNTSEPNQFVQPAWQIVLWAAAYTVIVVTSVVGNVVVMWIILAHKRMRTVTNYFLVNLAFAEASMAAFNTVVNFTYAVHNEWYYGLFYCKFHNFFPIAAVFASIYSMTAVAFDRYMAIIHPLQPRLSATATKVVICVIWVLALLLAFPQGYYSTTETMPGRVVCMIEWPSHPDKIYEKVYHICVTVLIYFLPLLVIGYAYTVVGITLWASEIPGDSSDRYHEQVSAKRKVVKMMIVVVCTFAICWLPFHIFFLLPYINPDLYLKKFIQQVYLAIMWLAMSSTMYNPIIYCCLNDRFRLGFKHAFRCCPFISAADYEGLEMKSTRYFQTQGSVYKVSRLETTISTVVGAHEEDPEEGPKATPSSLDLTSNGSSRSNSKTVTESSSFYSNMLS
Chain of µ opioid receptor of the guinea pig isolated ileum (P97266 whole entry): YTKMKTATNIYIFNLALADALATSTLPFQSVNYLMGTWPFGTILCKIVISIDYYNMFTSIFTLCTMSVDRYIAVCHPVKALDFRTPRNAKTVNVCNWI

B1: DmtDAlaGlyPheNleProLeuTrpNHBn-3-(CF3) (peptide)
peptide: YAGFXPLW
modifications: Dmt at 1 (written Y); D-Ala at 2; Nle at 5 (written X); C-terminal NH-3-Bn(CF3) amide
notes: also called TY053
With B1, the affinity in the test with human NK1 receptor [1] corresponds to a Ki of 1.04 nM.

B2: Tyr[DCysGlyPheCys]ProLeuTrpNHBn(CF3)2 (peptide)
peptide: Y[dC]GFCPLW-{NH(3,5-(CF3)2-benzyl)}
modifications: disulfide 2-5
notes: cyclic; also called TY039; [D-Cys2, Cys5]TY027
For the molecule B2, in the test with human δ opioid receptor [2], the “[35S]GTPγS binding EC50” value came out at 0.9 nM, the “[35S]GTPγS binding Emax” value was determined as 37% and the “[35S]GTPγS binding LogEC50” value is -9. Moreover, in the test with rat µ opioid receptor [3], the “[35S]GTPγS binding EC50” value was 118 nM, the “[35S]GTPγS binding Emax” value was 17% and the “[35S]GTPγS binding LogEC50” value is -6.9. In the test with rat µ opioid receptor [4], this molecule showed a Ki of 200 nM and a LogIC50 of -6.4. In the test with human δ opioid receptor [5], this molecule returned a Ki of 11 nM and a LogIC50 of -7.6. In addition, the LogIC50 with rat NK1 receptor [6] was -5.8.

B3: TyrDAlaGlyPheMet(O)ProLeuTrpOBn(CF3)2 (peptide)
peptide: YAGFMPLW
modifications: D-Ala at 2; Met(O) at 5; C-terminal O-3,5-Bzl(CF3)2 ester
notes: also called TY023
As for B3, the “GTP binding Emax” value in the test with human δ opioid receptor [7] stood at 52.8%. Also, the “GPI/LMMP IC50” value in [8] is 154 nM. Also, the “GPI/LMMP SP antagonist Ke” value with guinea pig NK1 receptor is 7.8 nM. In the test with human δ opioid receptor [9], this molecule had an inhibition constant Ki of 5.1 nM. The same molecule came in with an IC50 in the test with rat NK1 receptor [10] of 54.5 nM.

B4: TyrDAlaGlyPheProLeuTrpOBn(CF3)2 (peptide)
peptide: Y[dA]GFPLW-{OBzl(3,5-(CF3)2)}
notes: also called TY001
In the case of B4, in the test with rat NK1 receptor [10], the IC50 amounted to 21.7 nM.

B5: TyrDAlaGlyPheNleProLeuTrpOBn(CF3)2 (peptide)
peptide: YAGFXPLW
modifications: D-Ala at 2; Nle at 5 (written X); C-terminal O-3,5-Bzl(CF3)2 ester
notes: also called TY018
For B5, in the test with human δ opioid receptor [7], the “GTP binding EC50” value was determined as 4 nM and the “GTP binding Emax” value turned out to be 131%. For the same molecule, the “GPI/LMMP IC50” value in [8] is 372 nM. In addition, the “GPI/LMMP SP antagonist Ke” value with guinea pig NK1 receptor turned out to be 7.9 nM. This molecule yielded an inhibitory constant (Ki) in the test with human δ opioid receptor [9] of 1.8 nM.

B6: H-Tyr-DAla-Gly-Phe-Pro-Leu-Trp-O-Bzl (peptide)
peptide: H-Y[dA]GFPLW-OBn
modifications: also: TFA salt
notes: TFA salt; also called TY011
As to B6, the values for the inhibition constant Ki in the test with human NK1 receptor [11] and with rat NK1 receptor [12] were 100 nM and 270 nM, respectively. In addition, the LogIC50 with human NK1 receptor [11] is -6.7; in the test with rat NK1 receptor [12] it was -6.1.

B7: Tyr-DAla-Gly-Phe-Aib-Trp-O-Bzl(CF3)2 (peptide)
peptide: Y[dA]GF[Aib]W-{O‑Bzl(CF3)2″}
notes: also called NP41
B7: the “GTP EMax” value with human δ opioid receptor [13] came to 65; in the test with rat µ opioid receptor [14], 36. The Ki in the test with rat µ opioid receptor [15] came to 13.3 nM; with human δ opioid receptor [16], 24.2 nM; in the test with human NK1 receptor [17], 0.008 nM; with rat NK1 receptor [18], 3.4 nM.

B8: Tyr-DAla-Gly-Phe-α-Abu-Trp-O-Bzl(CF3)2 (peptide)
peptide: Y[dA]GF[Abu]W-{O‑Bzl(CF3)2}
notes: also called NP33
In the case of B8, the “GTP EMax” value was determined as 43 with human δ opioid receptor [13] and 32 with rat µ opioid receptor [14]. Also, the Ki in the test with rat µ opioid receptor [15] turned out to be 11.4 nM; in the test with human δ opioid receptor [16], 1.6 nM; in the test with human NK1 receptor [17] it was 0.12 nM; in the test with rat NK1 receptor [18] it was 1.2 nM.

B9: Tyr-DAla-Gly-Phe-Ala-Trp-O-Bzl(CF3)2 (peptide)
peptide: Y[dA]GFAW-{O‑Bzl(CF3)2}
notes: also called NP31
Take B9: the “GTP EMax” value with human δ opioid receptor [13] amounted to 91; with rat µ opioid receptor [14] it was 50. The results for the Ki with rat µ opioid receptor [15], in the test with human δ opioid receptor [16] and in the test with rat NK1 receptor [18] were 3.6 nM, 1.2 nM and 8.6 nM, respectively.

B10: Tyr-DAla-Gly-Phe-Met-Trp-O-Bzl(CF3)2 (peptide)
peptide: Y[dA]GFMW-{O‑Bzl(CF3)2}
notes: also called NP38
As for B10, the “GTP EMax” value with human δ opioid receptor [13] was 36; with rat µ opioid receptor [14], 51. The Ki came to 3.3 nM with rat µ opioid receptor [15], 0.6 nM with human δ opioid receptor [16], 0.009 nM in the test with human NK1 receptor [17] and 0.089 nM with rat NK1 receptor [18].
